Laboratory results as given in article PMC4856591 (Structure (London, England : 1993), 2016).

Biological target: the molecule itself
Test: SAXS

B1: Human PKG Iβ LZ:CNB-A/B (residues 1-369) (domain or fragment, UniProt Q13976-2 1-369, looked up)
chain: MGTLRDLQYALQEKIEELRQRDALIDELELELDQKDELIQKLQNELDKYRSVIRPATQQAQKQSASTLQGEPRTKRQAISAEPTAFDIQDLSHVTLPFYPKSPQSKDLIKEAILDNDFMKNLELSQIQEIVDCMYPVEYGKDSCIIKEGDVGSLVYVMEDGKVEVTKEGVKLCTMGPGKVFGELAILYNCTRTATVKTLVNVKLWAIDRQCFQTIMMRTGLIKHTEYMEFLKSVPTFQSLPEEILSKLADVLEETHYENGEYIIRQGARGDTFFIISKGTVNVTREDSPSEDPVFLRTLGKGDWFGEKALQGEDVRTANVIAAEAVTCLVIDRDSFKHLIGGLDDVSNKAYEDAEAKAKYEAEAAFFAN
B1: binds.
